This is an account of results in publication PMC10884834, “SPR spectroscopic analysis of myosin binding to wild type and mutant UNC45B” (microPublication Biology, 2024).

Assay [1] deals with myosin II, full-length, purified from rabbit skeletal muscle (rabbit, UniProt Q28641 1-1938, Deletion taken as residues 600-630, as the methods print for the mutant; the description gives the loop as N601-D630, so residue 600 is uncertain. Full-length canonical isoform (931 aa) assumed. His-t). The experiment in a line: SPR; BIAcore X100; His-tagged UNC45B constructs (0.2 uM) captured on Ni2+-NTA sensor chip; myosin analyte 1 up to 3500 nM at 5 ul/min; HBS-P (10 mM HEPES, 150 mM NaCl, 0.005% Tween20, pH 7.4) plus 50 uM EDTA; 20 C; steady-state signal fitted to a 1:1 one-site saturation model; n=3. Particulars: both partners purified. Background: In SPR one partner is held on a chip, and binding of the other changes the refractive index at the surface.

Assay [2] addresses myosin II, full-length, purified from rabbit skeletal muscle (rabbit, UniProt Q28641 1-1938). Described as above. Particulars: both partners purified.

One may read the Kd as the constant that tells how readily two partners part at equilibrium.

B1: UNC45B loop deletion mutant (residues 600-630), Homo sapiens (natural protein)
chain: MAEVEAVQLKEEGNRHFQLQDYKAATNSYSQALKLTKDKALLATLYRNRAACGLKTESYVQAASDASRAIDINSSDIKALYRRCQALEHLGKLDQAFKDVQRCATLEPRNQNFQEMLRRLNTSIQEKLRVQFSTDSRVQKMFEILLDENSEADKREKAANNLIVLGREEAGAEKIFQNNGVALLLQLLDTKKPELVLAAVRTLSGMCSGHQARATVILHAVRIDRICSLMAVENEEMSLAVCNLLQAIIDSLSGEDKREHRGKEEALVLDTKKDLKQITSHLLDMLVSKKVSGQGRDQALNLLNKNVPRKDLAIHDNSRTIYVVDNGLRKILKVVGQVPDLPSCLPLTDNTRMLASILINKLYDDLRCDPERDHFRKICEEYITGKFDPQDMDKNLNAIQTVSGILQGPFDLGNQLLGLKGVMEMMVALCGSERETDQLVAVEALIHASTKLSRATFIITNGVSLLKQIYKTTKNEKIKIRTLVGLCKLGSAGGTDYGLRQFAEGSTEKLAKQCRKWLCNMSIDTRTRRWAVEGLAYLTLDADVKDDFVQDVPALQAMFELAKAGTSDKTILYSVATTLVNCTNSYDVKEVIPELVQLAISALACMVKADSAILTDQTKELLARVFLALCDNPKDRGTIVAQGGGKALIPLALEGTDVGKVKAAHALAKIAAVSNPDIAFPGERVYEVVRPLVRLLDTQRDGLQNYEALLGLTNLSGRSDKLRQKIFKERALPDIENYMFENHDQLRQAATECMCNMVLHKEVQERFLADGNDRLKLVVLLCGEDDDKVQNAAAGALAMLTAAHKKLCLKMTQVTTQWLEILQRLCLHDQLSVQHRGLVIAYNLLAADAELAKKLVESELLEILTVVGKQEPDEKKAEVVQTARECLIKCMDYGFIKPVS
Regarding B1, the Kd in assay [1] is 2630 nM.

B2: UNC45B (wild type), Homo sapiens (natural protein, human, UniProt Q8IWX7 1-931, looked up)
chain: MAEVEAVQLKEEGNRHFQLQDYKAATNSYSQALKLTKDKALLATLYRNRAACGLKTESYVQAASDASRAIDINSSDIKALYRRCQALEHLGKLDQAFKDVQRCATLEPRNQNFQEMLRRLNTSIQEKLRVQFSTDSRVQKMFEILLDENSEADKREKAANNLIVLGREEAGAEKIFQNNGVALLLQLLDTKKPELVLAAVRTLSGMCSGHQARATVILHAVRIDRICSLMAVENEEMSLAVCNLLQAIIDSLSGEDKREHRGKEEALVLDTKKDLKQITSHLLDMLVSKKVSGQGRDQALNLLNKNVPRKDLAIHDNSRTIYVVDNGLRKILKVVGQVPDLPSCLPLTDNTRMLASILINKLYDDLRCDPERDHFRKICEEYITGKFDPQDMDKNLNAIQTVSGILQGPFDLGNQLLGLKGVMEMMVALCGSERETDQLVAVEALIHASTKLSRATFIITNGVSLLKQIYKTTKNEKIKIRTLVGLCKLGSAGGTDYGLRQFAEGSTEKLAKQCRKWLCNMSIDTRTRRWAVEGLAYLTLDADVKDDFVQDVPALQAMFELAKAGTSDKTILYSVATTLVNCTNSYDVKEVIPELVQLAKFSKQHVPEEHPKDKKDFIDMRVKRLLKAGVISALACMVKADSAILTDQTKELLARVFLALCDNPKDRGTIVAQGGGKALIPLALEGTDVGKVKAAHALAKIAAVSNPDIAFPGERVYEVVRPLVRLLDTQRDGLQNYEALLGLTNLSGRSDKLRQKIFKERALPDIENYMFENHDQLRQAATECMCNMVLHKEVQERFLADGNDRLKLVVLLCGEDDDKVQNAAAGALAMLTAAHKKLCLKMTQVTTQWLEILQRLCLHDQLSVQHRGLVIAYNLLAADAELAKKLVESELLEILTVVGKQEPDEKKAEVVQTARECLIKCMDYGFIKPVS
notes: UNC45B, Homo sapiens, codon optimized for E. coli, synthesized (GenScript), in a pET-28 vector; also called wild-type UNC-45B; source: E. coli BL21 DE3, purified (HisPur Ni-NTA resin)
Take B2: the Kd in assay [2] amounted to 330 nM.
